According to patent EP0577752B2:

Target: IL-8 binding sites on human neutrophils (human)
Assay: competition of 125I-IL-8 by unlabelled IL-8 on human neutrophils, 2 hr at 4 degrees

Kd: 1.1 nM
binding sites/cell (binding sites/cell): 31000
Substance: human 72 amino acid IL-8 (from UniProt P10145 21-99) (ligand)
